Assay results taken from patent publication US20230053258.

Target: recombinant human insulin (UniProt P01308)
Sequence (P01308 whole entry, looked up): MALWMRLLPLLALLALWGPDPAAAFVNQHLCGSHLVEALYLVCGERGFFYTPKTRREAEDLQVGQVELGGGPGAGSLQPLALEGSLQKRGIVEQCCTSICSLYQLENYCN

Substance | insulin degradation (residual insulin by ELISA)
recombinant human IDE, inactive mutant E111Q | the mutated IDE degraded only 15% of the insulin under the same conditions
recombinant human wild type insulin degrading enzyme (WT rhIDE) | ~60% degradation following 2 hours at 37 °C
